This experiment deals with anti-RSV 2Fc mAb (dual Fc human IgG1, clone B21M variable regions) (human). Description: SPR.

A word on the Kd: it is the concentration at which binding is half-saturated. A lower Kd goes with tighter binding. Usually stoichiometry N stands for the number of molecules, sites or subunits per partner or assembly.

Take “human FcγRI (from UniProt P12314 16-292) (receptor)”: the Kd is 1.82 nM and the stoichiometry N was 2.12 FcR:mAb.
For “human neonatal Fc receptor (FcRn) (from UniProt P55899 24-297)”, the Kd was found to be 121 nM and the stoichiometry N is 4.17 FcR:mAb.
